According to article PMC6167325, “Outward open conformation of a Major Facilitator Superfamily multidrug/H^+ antiporter provides insights into switching mechanism” (Nature Communications, 2018):

Target: T1, MdfA, major facilitator superfamily (MFS) drug/H+ antiporter from Escherichia coli (Escherichia coli, UniProt P0AEY8)
T1 construct: MdfA, multidrug/H+ antiporter of E. coli; wild type; the final model of the complex holds residues Gln14-Lys400; One complex in the asymmetric unit; also called MFS-MDR transporter; source: purified
Assay: crystal structure; co-crystals of MdfA in complex with the Fab fragment grown in the lipidic cubic phase; 3.4 Å; space group P6(1)22, one complex in the asymmetric unit; data at 100 K
Conditions: both partners purified

T1 sequence (P0AEY8 whole entry, the tested form may be a part): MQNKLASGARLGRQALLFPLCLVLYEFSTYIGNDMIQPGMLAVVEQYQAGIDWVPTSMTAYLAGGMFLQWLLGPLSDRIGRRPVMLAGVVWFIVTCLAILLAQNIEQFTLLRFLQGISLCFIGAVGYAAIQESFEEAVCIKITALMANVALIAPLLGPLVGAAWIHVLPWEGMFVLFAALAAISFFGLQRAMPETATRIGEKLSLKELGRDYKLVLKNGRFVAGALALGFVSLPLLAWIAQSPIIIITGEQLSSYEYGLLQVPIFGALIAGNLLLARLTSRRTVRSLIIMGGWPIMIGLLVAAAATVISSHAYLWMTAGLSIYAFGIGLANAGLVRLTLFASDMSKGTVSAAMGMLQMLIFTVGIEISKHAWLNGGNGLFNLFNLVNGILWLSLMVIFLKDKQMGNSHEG

B1: Fab YN1074 (Fab, V domains shown)
VH: EVQLKESGPGLVAPSQSLSITCTVSGFSFSIYGLHWVRQPPGKGLEWLGMIWGGGRTDYNSALKSRLSISKDNSKSQVFLKMKSLQTDDTAMYYCARNSGYGNLAYWGQGTLVTVSA
VL: DIVMTQSPSSLSASLGERVSLTCRASQDIGYSLNWLQQEPDGTIKRLIYATSNLDSGVPKRFSGSRSGSDYSLTISSLESEDFVDYYCLQYASSPYTFGGGTKLEIK
notes: the model holds residues Leu4-Pro216; the model holds residues Asp1-Arg211; also called Fab fragment
binding result: binds
